What all share (assay type): cell-based
The test system of assay [1] is TRAIL DISC in Ramos cells. Description: DISC analysis with biotinylated TRAIL in Ramos cells. As to conditions: biotinylated ligand 500 ng ml^−1, 30 min. How it is done: (§1) After exposure of the cells for 30 min, DISC complexes were isolated and analyzed for the indicated proteins by Western blotting. To provide an unstimulated receptor control (u/s), biotinylated wt or mutant TRAIL was added to lysate from untreated cells. C: Freshly isolated cells from patients with CLL were incubated for 16 h either alone or in the presence of depsipeptide (10 nM). […] The different symbols used indicate data from six individual patients and the solid line indicates the Mean.
(§2) Ramos or Jurkat cells (5×10^7 cells per treatment) were exposed to biotin-tagged recombinant His-TRAIL (biotinylated TRAIL) or one of its mutant forms (500 ng ml^−1) for 30 min and then DISC formation assessed as described previously (MacFarlane et al., 2002 ibid.).

Assay [2] has as its target T1, MCF-7 cells (Homo sapiens).
T1 construct: the breast tumour cell line MCF-7 signals to apoptosis via TRAIL-R1; endogenous in cells; host or cells: MCF-7 (clone F43)
The assay can be described thus: TRAIL DISC activation in MCF-7 cells. The note with it: FIG. 5B. How it is done:
Ramos and Jurkat T cells (clone E6-1) were cultured as described (MacFarlane et al, 2005 ibid.). The breast tumour cell line, MCF-7 (clone F43) was cultured as described previously (MacFarlane et al., 2000 J. Cell Biol. 148, 1239-1254). Cells were cultured for either 4 h (Ramos and Jurkat) or 6 h (MCF-7) with His-TRAIL (MacFarlane et al, 1997 J Biol Chem 272, 25417-25420), HGS-ETR1 or HGS-ETR2 (Human Genome Sciences), or a mutant form of His-TRAIL (MacFarlane et al, 2005 ibid.). Samples were analyzed for apoptosis, Western blotting, or TRAIL DISC activation as described (MacFarlane et al, 2005 ibid.; MacFarlane et al. 2002 Oncogene 21, 6809-6818). Mutants of His-TRAIL (residues 95-281) were generated using the Quik-Change site-directed mutagenesis kit (Stratagene, Calif.), confirmed by DNA sequencing, expressed in E. coli and purified as described (MacFarlane et al, 1997 ibid.). […] After 40 h of transfection the cells were collected and total TRAIL-R1 or TRAIL-R2 levels assessed. Where indicated, RNAi transfected MCF-7 cells were either left untreated or exposed to wt-TRAIL and apoptosis assessed by the extent of Bax activation, determined using the conformation specific Bax MAb, clone 3 (Dewson et al, 2003 Oncogene vol 22 pp 2643-54).
Apoptosis was quantified by measuring the processing of Caspase-8, Caspase-7 and PARP by Western blot analysis. […]

Assay [3] concerns TRAIL DISC in Jurkat cells. The assay can be described thus: DISC analysis with biotinylated TRAIL in Jurkat cells. The note with it: biotinylated ligand 500 ng ml^−1, 30 min. How it is done:
as §1, §2

B1: TRAIL.R1-5: 6His TRAIL 95-281 with 193Ser, 199Val, 201Arg, 213Trp and 215Asp (protein)
chain: TSEETISTVQEKQQNISPLVRERGPQRVAAHITGTRGRSNTLSSPNSKNEKALGRKINSWESSRSGHSFLSNLHLRNGELVIHEKGFYYIYSQTYFRFSEEIKEVTRNDKQMVQYIYKWTDYPDPILLMKSARNSCWSKDAEYGLYSIYQGGIFELKENDRIFVSVTNEHLIDMDHEASFFGAFLVG
modifications: biotin (site not stated) in the DISC analysis only; not biotinylated in the apoptosis assays
notes: 6His TRAIL 95-281 with 193Ser, 199Val, 201Arg, 213Trp and 215Asp
With B1, the “DISC formation: receptor bound, FADD and caspase-8 recruitment” value was “bound predominantly TRAIL-R1 together with a small amount of TRAIL-R2” in assay [1]; “bound small amounts of both TRAIL-R1 and -R2” in assay [3]. Moreover, the “recruitment and processing of Caspase-8 at the DISC” value in assay [2] is “resulted in recruitment and processing Caspase-8 at the DISC”.

For the origin of these results see US20090325867A1, “RECEPTOR-SPECIFIC TUMOUR NECROSIS FACTOR-RELATED APOPTOSIS-INDUCING LIGAND (TRAIL) VARIANTS” (MEDICAL RESEARCH COUNCIL, priority 2005, published 2009).
